Data taken from patent publication US20260116937A1 (published 2026).

Tests used:
human C3b [1] = target: T1, human C3b (human, UniProt P01024 749-1663; P01024 23-667); assay: ELISA
human C3b [2] = target: T1, human C3b; assay: ELISA; culture supernatant
human C3b [3] = target: T1, human C3b; assay: ELISA; remark: listed apart in the source

T1 sequence (P01024 749-1663, chain 1 of 2): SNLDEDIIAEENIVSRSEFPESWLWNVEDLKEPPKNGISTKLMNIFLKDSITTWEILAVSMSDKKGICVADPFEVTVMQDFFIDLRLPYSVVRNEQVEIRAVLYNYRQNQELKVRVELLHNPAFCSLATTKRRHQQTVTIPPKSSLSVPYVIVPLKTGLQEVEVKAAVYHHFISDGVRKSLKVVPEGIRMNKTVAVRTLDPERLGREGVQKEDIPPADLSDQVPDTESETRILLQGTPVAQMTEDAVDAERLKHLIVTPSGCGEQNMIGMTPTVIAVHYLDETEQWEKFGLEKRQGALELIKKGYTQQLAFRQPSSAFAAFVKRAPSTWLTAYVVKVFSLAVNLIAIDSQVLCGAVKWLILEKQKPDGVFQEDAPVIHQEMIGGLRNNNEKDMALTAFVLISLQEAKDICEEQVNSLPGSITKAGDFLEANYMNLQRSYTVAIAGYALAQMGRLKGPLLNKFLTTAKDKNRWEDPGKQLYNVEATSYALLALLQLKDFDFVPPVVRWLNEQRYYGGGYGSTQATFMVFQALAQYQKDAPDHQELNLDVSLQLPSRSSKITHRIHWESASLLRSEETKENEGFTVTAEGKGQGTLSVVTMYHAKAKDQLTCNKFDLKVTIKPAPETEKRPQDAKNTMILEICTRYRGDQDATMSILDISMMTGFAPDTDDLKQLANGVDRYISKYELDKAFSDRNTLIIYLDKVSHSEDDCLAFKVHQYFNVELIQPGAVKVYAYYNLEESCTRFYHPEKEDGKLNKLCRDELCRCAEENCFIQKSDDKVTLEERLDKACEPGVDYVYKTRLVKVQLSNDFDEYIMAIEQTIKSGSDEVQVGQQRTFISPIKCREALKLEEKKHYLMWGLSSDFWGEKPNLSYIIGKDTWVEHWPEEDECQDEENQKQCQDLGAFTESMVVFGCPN
T1 sequence (P01024 23-667, chain 2 of 2): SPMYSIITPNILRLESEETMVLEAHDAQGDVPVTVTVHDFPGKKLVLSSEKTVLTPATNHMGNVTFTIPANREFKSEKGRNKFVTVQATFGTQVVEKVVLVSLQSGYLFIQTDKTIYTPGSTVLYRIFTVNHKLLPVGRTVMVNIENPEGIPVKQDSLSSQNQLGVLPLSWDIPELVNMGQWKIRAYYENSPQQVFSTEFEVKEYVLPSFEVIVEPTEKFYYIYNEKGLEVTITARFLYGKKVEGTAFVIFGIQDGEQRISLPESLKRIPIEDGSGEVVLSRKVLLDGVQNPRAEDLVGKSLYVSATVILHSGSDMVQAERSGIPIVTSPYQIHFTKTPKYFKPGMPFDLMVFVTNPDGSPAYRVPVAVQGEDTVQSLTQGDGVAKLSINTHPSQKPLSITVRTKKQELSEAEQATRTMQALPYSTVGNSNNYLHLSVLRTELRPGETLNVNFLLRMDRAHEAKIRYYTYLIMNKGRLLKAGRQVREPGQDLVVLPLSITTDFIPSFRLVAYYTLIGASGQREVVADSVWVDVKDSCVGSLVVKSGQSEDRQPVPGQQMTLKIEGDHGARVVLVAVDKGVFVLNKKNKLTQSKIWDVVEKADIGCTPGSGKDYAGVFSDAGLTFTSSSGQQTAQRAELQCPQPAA

B1: Factor H-like protein 1 (FHL-1) (other)
chain: EDCNELPPRRNTEILTGSWSDQTYPEGTQAIYKCRPGYRSLGNVIMVCRKGEWVALNPLRKCQKRPCGHPGDTPFGTFTLTGGNVFEYGVKAVYTCNEGYQLLGEINYRECDTDGWTNDIPICEVVKCLPVTAPENGKIVSSAMEPDREYHFGQAVRFVCNSGYKIEGDEEMHCSDDGFWSKEKPKCVEISCKSPDVINGSPISQKIIYKENERFQYKCNMGYEYSERGDAVCTESGWRPLPSCEEKSCDNPYIPNGDYSPLRIKHRTGDEITYQCRNGFYPATRGNTAKCTSTGWIPAPRCTLKPCDYPDIKHGGLYHENMRRPYFPVAVGKYYSYYCDEHFETPSGSYWDHIHCTQDGWSPAVPCLRKCYFPYLENGYNQNYGRKFVQGKSIDVACHPGYALPKAQTTVTCMENGWSPTPRCIRVSFTL
B1 was tested, and the EC50 (human C3b [1]) was 7.4 nM.

B2: Var108 (glycoengineered variant of FHL-1, G442N in the Var004 framework) (designed binder)
chain: EDCNELPPRRNTEILTGSWSDQTYPEGTQAIYKCRPGYRSLGNVIMVCRKGEWVALNPLRKCQKRPCGHPGDTPFGTFTLTGGNVFEYGVKAVYTCNEGYQLLGEINYRECDTDGWTNDIPICEVVKCLPVTAPENGKIVSSAMEPDREYHFGQAVRFVCNSGYKIEGDEEMHCSDDGFWSKEKPKCVEISCKSPDVINGSPISQKIIYKENERFQYKCNMGYEYSERGDAVCTESGWRPLPSCEEKSCDNPYIPNGDYSPLRIKHRTGDEITYQCRNGFYPATRGNTAKCTSTGWIPAPRCTLKPCDYPDIKHGGLYHENMRRPYFPVAVGKYYSYYCDEHFETPSGSYWDHIHCTQDGWSPAVPCLRKCYFPYLENGYNQNYGRKFVQGKSIDVACHPGYALPKAQTTVTCMENGWSPTPRCIRVSGGGGSGGGGSGGGNSTLKPCDYPDIKHGGLYHENMRRPYFPVAVGKYYSYYCDEHFETPSGSYWDHIHCTQDGWSPAVPCLRKCYFPYLENGYNQNYGRKFVQGKSIDVACHPGYALPKAQTTVTCMENGWSPTPRCIRVSFTL
modifications: N-linked glycosylation at the engineered NxS/T motif (G442N), >90% glycosylated monomer
Binder B2 has an EC50 (human C3b [1]) of 0.4 nM.

B3: Var004 (engineered variant of FHL-1) (designed binder)
chain: EDCNELPPRRNTEILTGSWSDQTYPEGTQAIYKCRPGYRSLGNVIMVCRKGEWVALNPLRKCQKRPCGHPGDTPFGTFTLTGGNVFEYGVKAVYTCNEGYQLLGEINYRECDTDGWTNDIPICEVVKCLPVTAPENGKIVSSAMEPDREYHFGQAVRFVCNSGYKIEGDEEMHCSDDGFWSKEKPKCVEISCKSPDVINGSPISQKIIYKENERFQYKCNMGYEYSERGDAVCTESGWRPLPSCEEKSCDNPYIPNGDYSPLRIKHRTGDEITYQCRNGFYPATRGNTAKCTSTGWIPAPRCTLKPCDYPDIKHGGLYHENMRRPYFPVAVGKYYSYYCDEHFETPSGSYWDHIHCTQDGWSPAVPCLRKCYFPYLENGYNQNYGRKFVQGKSIDVACHPGYALPKAQTTVTCMENGWSPTPRCIRVSGGGGSGGGGSGGGGSTLKPCDYPDIKHGGLYHENMRRPYFPVAVGKYYSYYCDEHFETPSGSYWDHIHCTQDGWSPAVPCLRKCYFPYLENGYNQNYGRKFVQGKSIDVACHPGYALPKAQTTVTCMENGWSPTPRCIRVSFTL
In the case of B3, the EC50 (human C3b [2]) is reported as 2.5 nM.

B4: complement factor H (CFH) (other)
chain: EDCNELPPRRNTEILTGSWSDQTYPEGTQAIYKCRPGYRSLGNVIMVCRKGEWVALNPLRKCQKRPCGHPGDTPFGTFTLTGGNVFEYGVKAVYTCNEGYQLLGEINYRECDTDGWTNDIPICEVVKCLPVTAPENGKIVSSAMEPDREYHFGQAVRFVCNSGYKIEGDEEMHCSDDGFWSKEKPKCVEISCKSPDVINGSPISQKIIYKENERFQYKCNMGYEYSERGDAVCTESGWRPLPSCEEKSCDNPYIPNGDYSPLRIKHRTGDEITYQCRNGFYPATRGNTAKCTSTGWIPAPRCTLKPCDYPDIKHGGLYHENMRRPYFPVAVGKYYSYYCDEHFETPSGSYWDHIHCTQDGWSPAVPCLRKCYFPYLENGYNQNYGRKFVQGKSIDVACHPGYALPKAQTTVTCMENGWSPTPRCIRVKTCSKSSIDIENGFISESQYTYALKEKAKYQCKLGYVTADGETSGSITCGKDGWSAQPTCIKSCDIPVFMNARTKNDFTWFKLNDTLDYECHDGYESNTGSTTGSIVCGYNGWSDLPICYERECELPKIDVHLVPDRKKDQYKVGEVLKFSCKPGFTIVGPNSVQCYHFGLSPDLPICKEQVQSCGPPPELLNGNVKEKTKEEYGHSEVVEYYCNPRFLMKGPNKIQCVDGEWTTLPVCIVEESTCGDIPELEHGWAQLSSPPYYYGDSVEFNCSESFTMIGHRSITCIHGVWTQLPQCVAIDKLKKCKSSNLIILEEHLKNKKEFDHNSNIRYRCRGKEGWIHTVCINGRWDPEVNCSMAQIQLCPPPPQIPNSHNMTTTLNYRDGEKVSVLCQENYLIQEGEEITCKDGRWQSIPLCVEKIPCSQPPQIEHGTINSSRSSQESYAHGTKLSYTCEGGFRISEENETTCYMGKWSSPPQCEGLPCKSPPEISHGVVAHMSDSYQYGEEVTYKCFEGFGIDGPAIAKCLGEKWSHPPSCIKTDCLSLPSFENAIPMGEKKDVYKAGEQVTYTCATYYKMDGASNVTCINSRWTGRPTCRDTSCVNPPTVQNAYIVSRQMSKYPSGERVRYQCRSPYEMFGDEEVMCLNGNWTEPPQCKDSTGKCGPPPPIDNGDITSFPLSVYAPASSVEYQCQNLYQLEGNKRITCRNGQWSEPPKCLHPCVISREIMENYNIALRWTAKQKLYSRTGESVEFVCKRGYRLSSRSHTLRTTCWDGKLEYPTCAKR
B4 was tested, and the EC50 (human C3b [1]) was 4.5 nM and the EC50 (human C3b [3]) was 1.2 nM.
